In patent US20250163449A1, “HERBICIDE-TOLERANT GENES AND METHOD FOR USING SAME” (QINGDAO KINGAGROOT CHEMICAL COMPOUND CO., LTD., priority 2022, published 2025):
Residue numbers refer to the chain shown, from its start. In names and notes the source's numbering stands.

B1: SEQ ID NO: 42: RdpA mutant L82H + V187L + F182W + G103L (protein)
chain: MHAALSPLSQRFERIAVQPLTGVLGAEITGVDLREPLDDSTWNEILDAFHTYQVIYFPGQAITNEQHIAFSRRFGPVDPVPHLKSIEGYPEVQMIRREANESLRVIGDDWHTDSTFLDAPPAAVVMRAIDVPEHGGDTGFLSMYTAWETLSPTMQATIEGLNVVHSATRVFGSLYQAQNRRWSNTSLKVMDVDAGDRETVHPLVVTHPGSGRKGLYVNQVYCQRIEGMTDAESKPLLQFLYEHATRFDFTCRVRWKKDQVLVWDNLCTMHRAVPDYAGKFRYLTRTTVGGVRPAR
B2: SEQ ID NO: 46: RdpA mutant L82H + V187L + F182W + R104G + T112S (protein)
chain: B1 chain with L103G, R104G, T112S

How the values were obtained:
[1] = tested on: rice (Jinjing 818); test: Transgenic rice T0 plantlets in greenhouse sprayed with compound B; format: in vivo
Protocol: (§1) Then, the obtained regenerated TO generation transgenic plantlets grew in the greenhouse, and were sprayed with compound B at the growth stage when approximately two leaves unfolded and the third one just appearing. Resistance levels of plants were recorded and evaluated after spraying treatment, wherein, the test results of control Jinjing 818 plants and transgenic Jinjing 818 plants comprising the protein-coding gene of SEQ ID NO: 42 after applying 20 g, 40 g, 60 g, 80 g, 100 g, 120 g/mu (1 mu=1/15 ha) compound B for corresponding days (DAT) are shown in FIG. 2.

[2] = tested on: Arabidopsis thaliana; test: T2 transgenic Arabidopsis thaliana plants foliage-sprayed with compound B; format: in vivo; settings: foliage-sprayed with 40 g/mu compound B, 12 days
Source text: In addition, compound B was sprayed to test T2 generation Arabidopsis thaliana plants, that were produced by some of the constructs, comprising unique events screened by T1 generation, wherein, the test results of the wild-type Arabidopsis thaliana control plants transformed with RdpA gene and Arabidopsis thaliana plants comprising the protein-coding gene of SEQ ID NO: 42 after being foliage-sprayed with 40 g/mu compound B for 12 days are shown in FIG. 4.

[3] = tested on: Arabidopsis thaliana; test: T2 transgenic Arabidopsis thaliana seeds screened on compound A medium; format: in vivo; settings: 0.15 μM compound A in medium, 11-24 days
Source text: Engineered proteins were selected for Arabidopsis thaliana transformation and plant analysis. DNA constructs were transformed into Arabidopsis thaliana using Agrobacterium tumifaciens and standard methods known in the art.
The transformed TO transgenic plantlets grew in the greenhouse. T1 generation Arabidopsis thaliana plant seeds produced by transformation of all constructs were collected after approximately 60 days of growth. Transgenic T1 generation Arabidopsis thaliana plants were screened by adding HYG to medium for T1 generation. T1 plants were selfed to produce seeds of T2 generation Arabidopsis thaliana plants. Wherein, compound A was added to medium to screen and test T2 generation Arabidopsis thaliana plant seeds, that were produced by all constructs, comprising unique events screened by T1 generation.

[4] = tested on: rice (Jinjing 818); test: Transgenic rice seedlings, compound B added to medium at rooting phase; format: in vivo; settings: at least 1 μM compound B in medium (0.5 and 1 μM for SEQ ID NO: 42), 17-26 days
Protocol: Plant transformation vectors were constructed, each comprising a recombinant DNA molecule encoding an engineered protein (SEQ ID NO: 42/38/82/86/102/106/126/138/142) with the protein-coding sequence optimized for monocot expression, and rice (Jinjing 818) calli were transformed with these vectors using Agrobacterium tumifaciens and standard methods known in the art. Different concentrations of hormone herbicide compound B were added at the rooting phase of the rice seedlings to test hormone resistance, wherein, the test results of control Jinjing 818 plants and transgenic Jinjing 818 plants comprising the protein-coding gene of SEQ ID NO: 42 after adding 0.5 μM and 1 μM compound B to medium for 19 days are shown in FIG. 1. The test results of control Jinjing 818 plants and transgenic Jinjing 818 plants comprising the protein-coding genes of SEQ ID NO: 38/82/86/102/106/126/138/142 after adding 1 μM compound B to medium are shown in FIG. 5-11.

[5] = tested on: soybean; test: Transgenic soybeans sprayed with compound C; format: in vivo; settings: for resistance compared with the wild-type soybean: 10 g compound C sprayed
Protocol: Engineered proteins were selected for soybean transformation and plant analysis. DNA constructs were transformed into soybeans using Agrobacterium tumifaciens and standard methods known in the art.
The transformed TO transgenic plantlets grew in the greenhouse. TO generation transgenic plantlets were tested by spraying 10 g compound C. […] T1 generation soybean plant seeds produced by transformation of all constructs were collected, and T1 generation seedlings were tested by spraying 10 g compound C.

[6] = Enzymatic kinetic measurements of purified proteins with compound A as substrate; format: biochemical; settings: purified protein, compound A 0-1000 μM as substrate
Protocol: Based on the results of HPLC, representative engineered proteins were selected for protein purification. Further protein characterization, such as Km, Vmax and Kcat, was performed on the 8 engineered proteins from Table 2. Conventional Ni column affinity chromatography was used for protein purification and protein extract purity was assessed by SDS-PAGE analysis. After determining protein concentration by BCA method, enzyme activity was determined.

[7] = Conversion rate of substrate compound A by E. coli expressing each engineered protein (HPLC, oxygenase activity); format: biochemical; settings: Reaction condition 1: bacteria cultured overnight, substrate compound A and IPTG added to react overnight
Source text: The high-throughput bacterial protein expression was achieved by cloning the synthesized gene that encodes each engineered protein into a bacterial expression vector with a C-terminal histidine tag (His-tag). The vectors were transformed into Escherichia coli (E. coli), and expression of the engineered proteins was induced. E. coli cultures were selected and cultured in centrifuge tubes overnight, meanwhile, added with substrates and IPTG, and the cultures were centrifuged to pellet the bacteria the next day. Alternatively, E. coli cultures were selected and cultured in centrifuge tubes overnight, and centrifuged to pellet the bacteria after adding substrates for reaction the next day. The supernatant of reaction solution was pipetted into a 96-well plate and the absorbance at 510 nm from 4-aminoantipyrine and potassium ferricyanide was measured by an endpoint colorimetric method to detect phenol products. Substrate reduction and product yield were measured by high performance liquid chromatography (HPLC) to detect the oxygenase activity (i.e., enzymatic activity) of the engineered proteins, and the activities of the proteins were compared by calculating conversion rates.
Conversion rate=(Peak area of initial substrate−Peak area of substrate after reaction)/Peak area of initial substrate*100%

[8] = tested on: maize; test: T0 transgenic maize plantlets sprayed with 30% glyphosate compound C (25+5) ME; format: in vivo
Protocol: Engineered proteins were selected for maize transformation and plant analysis. DNA constructs were transformed into maizes using Agrobacterium tumifaciens and standard methods known in the art.
The transformed TO transgenic plantlets grew in the greenhouse. TO generation transgenic plantlets were tested by spraying with 150 g, 250 g, 400 g, 600 g, 800 g of 30% glyphosate compound C (25+5) ME.

[9] = tested on: rice (Jinjing 818); test: Transgenic rice T0 plantlets in greenhouse sprayed with quizalofop-P-ethyl; format: in vivo; settings: T0 plantlets foliage-sprayed with 5 g, 10 g/mu quizalofop-P-ethyl, 20 DAT
Protocol: as §1, with “The” for “Then, the”, “quizalofop-P-ethyl” for “B”, “46” for “42”, “applying 0 g, 5 g, 10 g/mu compound quizalofop-P-ethyl for” for “applying”, “DAT” for “g, 40 g, 60 g, 80 g, 100 g, 120 g/mu (1 mu=1/15 ha) compound B for corresponding days (DAT)”, “12.” for “2.”

Molecule | drug resistance (tolerance to compound B) compared with wild-type plants ([1]; T0 plantlets foliage-sprayed with 20-120 g/mu compound B, tolerance at at least 120 g/mu) | tolerance compared with the wild types (summary) ([1]; medicated medium test and greenhouse spraying test for T0 generation, compound B) | drug resistance compared with wild-type plants transformed with RdpA gene [2] | drug resistance compared with wild-type Arabidopsis thaliana (longer roots and larger leaves) [3] | drug resistance (tolerance to compound B) compared with wild-type plants [4] | drug resistance compared with the wild-type soybeans ([5]; T1 generation plantlets, 10 g, 20 g, 40 g, 80 g compound C sprayed, at least 40 g) | Kcat [6] | Km [6] | Vmax [6] | Conversion rate [7] | drug resistance compared with the wild-type maize ([8]; 600 g 30% glyphosate compound C (25+5) ME) | phytotoxicity reaction of transgenic plantlets ([8]; 600 g of 30% glyphosate compound C (25+5) ME) | phytotoxicity reaction of transgenic plantlets ([8]; 800 g of 30% glyphosate compound C (25+5) ME) | phytotoxicity reaction of transgenic plantlets ([8]; concentration below 600 g of 30% glyphosate compound C (25+5) ME) | resistance compared with the wild-type soybean ([5]; T0 generation plantlets) | resistance compared with the wild-type soybean ([5]; T1 generation seedlings) | drug resistance (tolerance to quizalofop-P-ethyl) compared with wild-type plants [9]
B1 | exhibited better drug resistance | exhibited apparent tolerance | exhibited better drug resistance | exhibited better drug resistance | exhibited better drug resistance | exhibited better drug resistance | 0.86 S^−1 | 81.3 µM | 99.6 | 96.6% |  |  |  |  |  |  | 
B2 |  |  |  | exhibited better drug resistance |  |  | 0.15 S^−1 | 17.5 µM | 35.2 | 97% | better drug resistance | the stem base was slightly enlarged, the whole plant growth was obviously inhibited, and the plant was in normal condition | the stem base was significantly enlarged, inhibition on the whole plant growth was further intensified, and the leaf color became lighter and lusterless | no apparent phytotoxicity reaction | exhibited apparent resistance | exhibited apparent resistance | exhibited better drug resistance
